Measured values published in patent US20220153832A1 (PIONYR IMMUNOTHERAPEUTICS, published 2022).

T1: Cynomolgus MARCO, full length, on cells (cynomolgus, UniProt A0A2K5X0Z2 1-519)
T1 construct: whole, on cells; also called cyno MARCO; CyMARCO
T1 sequence: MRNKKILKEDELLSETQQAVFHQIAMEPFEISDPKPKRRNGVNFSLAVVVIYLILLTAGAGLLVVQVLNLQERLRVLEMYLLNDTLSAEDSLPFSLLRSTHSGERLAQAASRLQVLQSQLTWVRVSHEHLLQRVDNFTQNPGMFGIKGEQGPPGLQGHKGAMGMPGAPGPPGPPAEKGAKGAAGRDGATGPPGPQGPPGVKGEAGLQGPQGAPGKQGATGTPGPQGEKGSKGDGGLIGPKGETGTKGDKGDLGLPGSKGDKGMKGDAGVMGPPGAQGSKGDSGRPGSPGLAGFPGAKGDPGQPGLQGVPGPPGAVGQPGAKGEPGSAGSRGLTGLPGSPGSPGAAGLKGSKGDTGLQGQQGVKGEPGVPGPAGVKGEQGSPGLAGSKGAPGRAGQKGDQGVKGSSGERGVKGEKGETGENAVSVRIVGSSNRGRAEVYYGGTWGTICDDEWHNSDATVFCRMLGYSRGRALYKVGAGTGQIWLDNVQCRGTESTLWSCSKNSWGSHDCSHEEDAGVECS

T2: N-terminally polyhistidine tagged human MARCO ECD (147-520), recombinant (human, UniProt Q9UEW3 147-520)
T2 construct: also called PI-RG-3000; recombinant human MARCO; not shown: N-terminal polyhistidine tag
T2 sequence: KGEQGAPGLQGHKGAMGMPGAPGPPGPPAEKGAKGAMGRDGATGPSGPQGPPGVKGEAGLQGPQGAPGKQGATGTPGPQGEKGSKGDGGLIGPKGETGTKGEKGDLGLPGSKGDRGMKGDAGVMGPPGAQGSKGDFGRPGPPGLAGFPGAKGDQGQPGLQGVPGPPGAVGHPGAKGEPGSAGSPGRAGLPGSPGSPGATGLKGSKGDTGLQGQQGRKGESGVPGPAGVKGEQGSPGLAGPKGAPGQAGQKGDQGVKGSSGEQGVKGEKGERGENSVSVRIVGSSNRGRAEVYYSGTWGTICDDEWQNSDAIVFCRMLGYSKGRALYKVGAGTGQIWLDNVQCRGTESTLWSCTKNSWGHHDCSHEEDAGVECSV

T3: human MSR1 (R&D Systems) (human, UniProt P21757 77-451, limits assumed)
T3 construct: Related scavenger receptor used as specificity control; also called MSRI
T3 sequence (looked up): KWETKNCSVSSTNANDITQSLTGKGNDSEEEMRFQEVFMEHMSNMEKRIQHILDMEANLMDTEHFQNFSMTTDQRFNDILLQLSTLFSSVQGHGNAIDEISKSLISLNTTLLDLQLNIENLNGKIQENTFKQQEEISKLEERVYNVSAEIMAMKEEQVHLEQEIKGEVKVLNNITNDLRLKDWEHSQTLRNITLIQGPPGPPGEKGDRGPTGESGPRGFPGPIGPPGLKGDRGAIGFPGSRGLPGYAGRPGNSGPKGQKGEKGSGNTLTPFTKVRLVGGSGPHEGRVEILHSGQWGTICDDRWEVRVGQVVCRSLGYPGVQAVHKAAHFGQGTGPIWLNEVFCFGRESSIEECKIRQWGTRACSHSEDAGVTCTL


Tests used:
[1] = target: T1, Cynomolgus MARCO, full length, on cells; experiment: flow cytometry, cells overexpressing cyno MARCO
[2] = target: T2, N-terminally polyhistidine tagged human …; experiment: Biacore; sample oxidized with 1.5% H2O2 (24 hr, RT)
Method: (PBS)+1 mM AAPH for 6 h, 0.5 and 1.5% H₂O₂ in PBS for 24 h, which was compared to a previous experiment at 40° C. (PBS)+1 mM AAPH for 6 h. Post treatment the samples were analyzed by LC-MS/MS which identified the % modification on isolated peptides derived from the antibody after trypsin digest.
Binding of the stressed samples to recombinant human MARCO was assessed by Biacore.

[3] = target: T2, N-terminally polyhistidine tagged human …; experiment: Biacore; oxidation stress sample (1 mM AAPH, 6 hrs)
human MSR1 (R&D Systems) = target: T3, human MSR1 (R&D Systems); experiment: ELISA on MSR1
Summary of the method: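 Cross-reactivity with human MSR1 (R&D Systems) was tested by ELISA. Maxisorp plates were coated overnight with 0.1 ug/well protein in DPBS with Ca2+ and Mg2+, then blocked with PBS/Ca2+/2% FBS. Hybridoma supernatants were added 1:1 in that buffer for 1 hour at room temperature. Detection used HRP-conjugated anti-rat IgG for 1 hr, then TMB and A450.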

[4] = target: T2, N-terminally polyhistidine tagged human …; experiment: ELISA on recombinant human MARCO, 50 mM EDTA
Method: (§1) After the plates were incubated at room temperature for 1 hour or 4° C. overnight, the plates were wash 3 times with ELISA wash buffer (PBS/0.05% TWEEN-20), then hybridoma supernatant (1:5 dilution) or purified antibody (1 ug) was diluted in DPBS/Ca2+/2% FBS, DPBS without Ca2+/2 mM EDTA/2% FBS, DPBS without Ca2+/10 mM EDTA/2% FBS, and DPBS without Ca2+/50 mM EDTA/2% FBS. Plates again were incubated at room temperature for 1 hour.

[5] = target: T2, N-terminally polyhistidine tagged human …; experiment: label-free kinetics (ProbeLife Gator), mAb captured, human MARCO
Method: The kinetics assay used either anti-mouse Fc or anti-human Fc probes to capture the anti-MARCO antibodies onto the probe, and then a five-step kinetic protocol was used to measure the affinity of the antibodies to the antigen, including the following steps: baseline, loading, baseline, association, and dissociation. The kinetics buffer (K buffer) provided by ProbeLife was used to establish the baseline for 60 seconds, and then the anti-mFc or anti-hFc probes were loaded with 200 nM of the antibodies for 120s until the capture reached saturation, measurement of the baseline in K buffer was performed for another 60s, followed by the association step using 200 nM antigen (human MARCO, mouse MARCO or cyno MARCO), and the dissociation step performed in K buffer for 5-10 minutes. The assay was done at 37° C. to maximize antibody:antigen dissociation.
Kinetics and epitope binning analysis of the newly generated anti-human MARCO antibodies was performed as described in Example 3.

[6] = target: T2, N-terminally polyhistidine tagged human …; experiment: ELISA on recombinant human MARCO, 2 mM EDTA
Method: as §1

hVar3 (RG3036) = target: T4, hVar3 (RG3036) (human, UniProt Q9UEW3 147-520); experiment: ELISA on hVar3
T4 construct: Human MARCO His-CLD-SRCR with Q452D, Y472S and K473S (already in the entry); also called recombinant human SRCR MARCO hVar3 protein

Binder	EC50 [1]	binding result (human MSR1 (R&D Systems))	ELISA signal (A450) [4]	koff [5]	kon [5]	ELISA signal (A450) [6]	other results
PI-3015-AB (antibody, human IgG1, kappa) heavy: not shown light: DIQMTQSPSSLSASVGDRVTITCRASEGISNDLAWYQQKPGKAPKLLIYAASRLQSGVPSRFSGSGSGTDYTLTISSMQPEDFATYYCQQSYKYPLTFGQGTKLEIKRTVAAPSVFIFPPSDEQLKSGTASVVCLLNNFYPREAKVQWKVDNALQSGNSQESVTEQDSKDSTYSLSSTLTLSKADYEKHKVYACEVTHQGLSSPVTKSFNRGEC	1.73 nM						Kd [2]: 1.07 nM; Kd [3]: 1.29 nM
PI-HX-3061 (antibody, rat IgG2a, Parental rat hybridoma, rat IgG2a; cross reactive with human and mouse MARCO) heavy: EVQLVESGGGLVQPGSSLKLSCVASKFTFSNYGMNWIRQAPKKGLEWIALIYYNSNNKYYADSVKGRFTISRDNSKNTLYLEMNSLRSEDTAMYYCAKSLTGGSDYFDSWGQGVMVTVSSAETTAPSVYPLAPGTALKSNSMVTLGCLVKGYFPEPVTVTWNSGALSSGVHTFPAVLQSGLYTLTSSVTVPSSTWPSQTVTCNVAHPASSTKVDKKIVPRNCGGDCKPCICTGSEVSSVFIFPPKPKDVLTITLTPKVTCVVVDISQDDPEVHFSWFVDDVEVHTAQTRPPEEQFNSTFRSVSELPILHQDWLNGRTFRCKVTSAAFPSPIEKTISKPEGRTQVPHVYTMSPTKEEMTQNEVSITCMVKGFYPPDIYVEWQMNGQPQENYKNTPPTMDTDGSYFLYSKLNVKKEKWQQGNTFTCSVLHEGLHNHHTEKSLSHSP light: DVQMTQSPSYLAASPGESVSISCKASKSIGTFLAWYQEKPEKTNKLLIYSGSTLQSGTPSRFSGSGSGTDFTLTIRNLEPEDFAVYYCQQHDEYPFTFGSGTKLEIKRADAAPTVSIFPPSTEQLATGGASVVCLMNNFYPRDISVKWKIDGTERRDGVLDSVTDQDSKDSTYSMSSTLSLTKADYESHNLYTCEVVHKTSSSPVVKSFNRNEC		no binding					
PI-HX-3031 (antibody, Parental rat hybridoma, rat IgG2a) heavy: QVQLKESGPGLVQPSQTLSLTCTVSGFSLTSYHVSWVRQPPGKGLEWMGAIWTGGSIAYNSLLKSRLSISRDTSKSQVFLKMNSLQTEDTATYYCARDLSDYYSSYTSFDYWGQGVMVTVSTAETTAPSVYPLAPGTALKSNSMVTLGCLVKGYFPEPVTVTWNSGALSSGVHTFPAVLQSGLYTLTSSVTVPSSTWSSQAVTCNVAHPASSTKVDKKIVPRECNPCGCTGSEVSSVFIFPPKTKDVLTITLTPKVTCVVVDISQNDPEVRFSWFIDDVEVHTAQTHAPEKQSNSTLRSVSELPIVHRDWLNGKTFKCKVNSGAFPAPIEKSISKPEGTPRGPQVYTMAPPKEEMTQSQVSITCMVKGFYPPDIYTEWKMNGQPQENYKNTPPTMDTDGSYFLYSKLNVKKETWQQGNTFTCSVLHEGLHNHHTEKSLSHSP light: DIQMTQSPASLSTSLGETVSIECLASEGISNDLAWYQQKSGKSPQLLIYAASRLQDGVPSRFSGSGSGTRYSLKISGMQPEDEADYFCQQSYKYPLTFGSGTKLEIKRADAAPTVSIFPPSTEQLATGGASVVCLMNNFYPRDISVKWKIDGTERRDGVLDSVTDQDSKDSTYSMSSTLSLTKADYESHNLYTCEVVHKTSSSPVVKSFNRNEC		no binding	0.0754	0.000798 s⁻¹	443000 M⁻¹ s⁻¹	0.0678	
PI-HX-3043 (antibody, rat IgG2a, Parental rat hybridoma, rat IgG2a) heavy: QVNLLQSRAALVKPGASVKLSCKASGYTFTDYYLHWVKQSHAKSLEWIGYINPNNAYTSYNEKFKSKATLTVDKSTNTAYMELSRLTSADSATYYCARDTTDYYNLHFAYWGQGTLVTVSSAETTAPSVYPLAPGTALKSNSMVTLGCLVKGYFPEPVTVTWNSGALSSGVHTFPAVLQSGLYTLTSSVTVPSSTWSSQAVTCNVAHPASSTKVDKKIVPRECNPCGCTGSEVSSVFIFPPKTKDVLTITLTPKVTCVVVDISQNDPEVRFSWFIDDVEVHTAQTHAPEKQSNSTLRSVSELPIVHRDWLNGKTFKCKVNSGAFPAPIEKSISKPEGTPRGPQVYTMAPPKEEMTQSQVSITCMVKGFYPPDIYTEWKMNGQPQENYKNTPPTMDTDGSYFLYSKLNVKKETWQQGNTFTCSVLHEGLHNHHTEKSLSHSP light: DIQMTQSPASLSASLGETVSIECLTSEGISNDLAWYQQKSGKSPQLLIYDASRLEDGVPSRFSGSGSGTRYSLKISGMQTEDEADYFCQQSYKYPLTFGSGTKLEIKRADAAPTVSIFPPSTEQLATGGASVVCLMNNFYPRDISVKWKIDGTERRDGVLDSVTDQDSKDSTYSMSSTLSLTKADYESHNLYTCEVVHKTSSSPVVKSFNRNEC			0.1	0.000849 s⁻¹	233000 M⁻¹ s⁻¹	0.0595	
PI-3010-AB (antibody, human IgG1, kappa) heavy: not shown light: DIQMTQSPASLSTSLGETVSIECLASEGISNDLAWYQQKSGKSPQLLIYAASRLQDGVPSRFSGSGSGTRYSLKISGMQPEDEADYFCQQSYKYPLTFGSGTKLEIKRTVAAPSVFIFPPSDEQLKSGTASVVCLLNNFYPREAKVQWKVDNALQSGNSQESVTEQDSKDSTYSLSSTLTLSKADYEKHKVYACEVTHQGLSSPVTKSFNRGEC	1.48 nM						binding result (hVar3 (RG3036)): no binding
